In the NTF2 design screens of Basanta et al. (2020):

Experiment: protease stability score; higher = more stable; yeast display proteolysis, trypsin and chymotrypsin;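 further: relative to predicted unfolded state with 0 unfolded-like and 1 meaning tenfold more protease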
Work on “SEEDHRAKHIFHLFLHWFLTGDWEIFEHYADPRMRTLVNGKNFHGWEETVKFLDHIFKELRVHHIHVDHLEVQGDKYHFEVRVDREYNGRREITIMYIHFLIFNGKVKSILIIIH” yielded a protease stability score of 1.08.
Sequence “TEHEEISHRLMELLKEALQTGDEEHIRDLADPHVRVIVNGKNIHGREEVHMWLLILNTKFKGLTLRVHHVDIQGEKIILDTRIHVNGRSTTSHVELYVVDGVLKRAHLHIE” has a protease stability score of 1.45.
Sequence “SEEDKLSEELARRWIHLFETGDEETILHLADPHMKYILIINGRNEIHHGMKMMSEELKRIKGARFEIKRIEVQGDKVHLDVRIRIDGVEIDSEIDLKIVDGRLRELKVTIK” has a protease stability score of 2.07.
Sequence “DKREHDMERWFKLWWHTLMTGDEDLYHELLDPNARIVQGEKHHHGRENLVEYFTHLVEEMRIRHFHLHDMRFQGEKNDIDGHIDITINGQRHDTRFTIHLLIVNGKLRHVELRIL” has a protease stability score of 0.506.
In the case of “KEDEEYFREVTKNLLELIETGDFDMLTELLDPHMLLDVNGRTFHGWELAVEWYRQHVKKFGIDNIKVTLKHIHIQGNKIHLDVEVEIGDKTERREFVLTKINGRWRFDSVVVR”, the protease stability score was 2.19.
“SEKEEISRRLLELWLKADATGDEKLLLKLMDPDVRIDVDGVENHGMELVTEFLREERDRIDHKIIEIKEMRVVGDKVHMDIRINIEVNGKENETRVELRLEIIDGKIRSVKIIKR” gave a protease stability score of 0.733.
With “DESEDAVRKSMELWEESMRTGNEERLIELVDPNVRLDINGQIYHGWSQFVEVIFNEFRHARLESIEIHEVRLQGDKIRSRTTLVIRINGRLKHLDVRFIVKKVDGRWQIHSEERE” the protease stability score was 1.31.
“SEEEEEVEEFIHIFTESLKTGDEHSLRRLVDPHVRIEWNGRTHHGWQMFTRLVREARVEIVVRDIRVINGRAIINGELRYEQGDKTFTTEIEIIVVKFDGKWHMHHVRYK” gave a protease stability score of 2.21.
In the case of “DDEEEEEEKFRKILEEALETGDERILHHFADPHVQTHFNGQTFHGREEWIKILRKLGVERVHLNIKRVEVYGDKIHIDGELHFDGRTHKVELVALKVDGRWLLHKIVIR”, the protease stability score was 1.68.
With “DDDKREMEEIARRWVESLETGDEDTLTKLADPNTKLELLIDGRENNLIGMRYWLEFLERFKNVTIKFKRMRVQGDKADIETEVNINGQRFRVRIELWVIDGRLHTLHIRIE” the protease stability score was 1.23.
For “DEDEKRVEHTERFLSHSRRTGDEETLETMFDPNAKNIIDGRIFIGREFVEIWVRKFKNATEDLKVEEIRVQGNKVELVGNLFVQVGDKRYELDTRIEMTKIDGRWIIHRIEFR”, the protease stability score was 1.21.
“DKREEIAREIWKMFDDAVFTGNEETLERMADPNVRFIIGDKHLIGMRDEIHWLREIRVHIELSRIHDIHLQGDKIHIDSHNDIEIIINGQERRHETKYMIDIRKVNGRWIIERVEIR” showed a protease stability score of 0.818.
Sequence “SEEEELWKMVDHLVHEWLRTGDEDTFSHYADPHARSIVNGKELHGREEFSNLVHKLKEQYPNLTLTIDELRSVGDKITLHITEEFNGVRYDVRIYALKVNGKWLHRYVEVR” has a protease stability score of 1.54.
In the case of “DEDEKWAERFLELLIRSLVTGDEKTLEELADPRVKVEIGDKILHGRDEFERFIHEARIKSVHVRRMTDINGVMLMDGETTGNIDGVDRRRRTRIWVLKINGQWHLHSYQVV”, the protease stability score was 1.41.
“DETRRHTEELFHWLLRAFMTGDFKLSYDNADPDVRFIINGRRDHGRDLYVRDLRHMRVHDSKVNHIHFEFQGDWAVVRVDGHIFGEYDGQHFNLRVEIRIIINKIDGRWSLESVEIRIH” gave a protease stability score of 0.812.
In the case of “SEMEEHAERVWRIMLTLLLTGDEEKFNHLADPNTRLIIIIGDKELHFHGRHEISNYLHRYLREIRIDHFHEHSITVQGNWVHTDGIMLGRFDGKRHEIRVHIHLIVIDGRIKEIYLENR”, the protease stability score was 1.64.
With “DKTEEDAKRWAEHFSHNMETGNEEKIIDLADPNTRLEVNGRHVHGREEFSRFWKELSDRVDHIRIQITRISIIGDKIRIDSRIFLHINGKEMIVESVLISEKVNGRWMMREIDIR” the protease stability score was 1.84.
“DEIERLFRELVNLIFELLRTGNFRKLEELLDPHTRLTIGDKYYHGRESVIEYLKHLWEQLGVDHMEFHVKRVDIQGEKVNADTEIRIKIGDKTYFRDTVLIFLKIDGRWEIRAWEEK” showed a protease stability score of 1.52.
With “DKEEEDVKKFTDEFIHHYLTGDWEKIRELADPNVRLIVGDKTLHGRELFIDWLRDELRRIDHIEHHVHRMSVINGKVHIDAELRIYINGRLHQTRIEIHLVIIDGRMRMVELRFR” the protease stability score was 2.13.
With “DETREHTEHIMNIILHALHTGDEHLIRDMIDPHVRWELIIDGQTHNHIGRDEWEKLLEELGIDRIEVILKRFRIFENHSEVKGTIHINGKDADVVIYILVINGKIKEIRIIHV” the protease stability score was 2.19.
In the case of “TESEKMALIAIEIIFHDLLTGNEESLIKLADPDVQLHYGDKTFHGREEFHKLYSEIIKRYDHIEVLIRDIRVQGDKMHVKEELNLVINGKTVHLESNRTSLKYNGRWHLKSVHLH”, the protease stability score was 1.26.
With “SEEKEMLETWFLLLVESFETGDEELFEELADPRTRLVINGRHQHGREDINEWLHRVWHKLGAKHVSLDLHDMRVINGRIHSHFTLLIRIGDYTERRQVDLHMIIINGKVKHVEIRFR” the protease stability score was 1.06.
For “TEEERHIKEMLELFLEFFKTGNEDLFKELADPHVRLHLNINGKKERVHGMDHAVKWLSQLRVHSFHLKDERAVDGVNEVDQESDVEWNGQRFETTVRLHVYIVNGKLHHLSIEIK”, the protease stability score was 1.19.
“DEEEETMRNIIMDWFRAMFTGDEERVNELLDPNARIEVGDKEWHGRDEFRKVLEHIRIHTRQIRIRRIDFFENRVHMDVQLDRELRFDGKTERIDVKLELFLVKIDGRWRFKETSVH” gave a protease stability score of 2.57.
“DQEHRDLHKLAHLILEYLVTGDFEMFEHLADPNVKVNINGKEMHGMERMREHLELIWKELRIHHLHITEVTIQGNKVEIDGRWDGKVNGQHRIEERHFYLVTVNGRIRHISEEIV” gave a protease stability score of 1.37.
